Experimental data: the nanobody polyreactivity screen of Harvey et al. (2022)

Experiment: yeast display, Sf9 membrane polyspecificity reagent, FACS + sequencing; frameworks hold sequencing errors
Procedure, shortened: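 Genes from sorted yeast were amplified by colony PCR, read by MiSeq 2 × 250 sequencing and filtered on CDR length. These cells carried a synthetic nanobody library in Saccharomyces cerevisiae BJ5465 and were sorted by FACS into low and high (top ~1%) gates on anti-HA and streptavidin fluorescence. Polyreactivity is labelled according to the gate of origin.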

| Sequence | polyreactivity (PSR sort gate) |
| --- | --- |
| QVQLVESGGGLVQAGGSLRLSCAASGGIFSYNAMGSYRQAPGKERELVATISYSGGSTFYADSVKGRFTISRDNAKNTVYLQMNSLKPEDTAVYYCARPSYTSGYQSYDYWGQGTQVTVSS | low polyreactivity |
| QVQLVESGGGLVQAGGSLRLSCAASGGIFSYNAMGWSRQAPGKEREWVASITGSGGSTYYADSVKGRFTISRGNAKNTVYLQMNSLKPEDTAVYYCAAQGYWTYWPYLLRLYDYWGQGTQVTVSS | low polyreactivity |
| QVQLVESGGGLVQAGGSLRLSCAASGGIFSYYAMGWYRQAPGKEREFVAAIDWGGGSTYYADSVKGRFTISRDNAKKTVYLQMNSLKPEDTAVYYCAAEIYPIGWDDYDYWGQGTQVTVSS | low polyreactivity |
| QVQLVESGGGLVQAGGSLRLSCAASGGIFTRNDMGWYRQAPGKERELVAGISWRGGSTYYADSVKGRFTISRDNAKNTVYLQMNSLKPEDTAVYYCAADLDSDFDYWGQGTQVTVSS | low polyreactivity |
| QVQLVESGGGLVQAGGSLRLSCAASGGIFVFYGLGWYRQAPGKERELVAAINGNGDDTYYADSVKGRFTISRDNAKNTVYLQMNSLKPEDTAVYYCAAESRGDGDGYWGQGTQVTVSS | low polyreactivity |
| QVQLVESGGGLVQAGGSLRLSCAASGGIFWFNAMGWYRQAPGKEREFVAAITWRGGSTYYADSVKGRFTISRDNAKNTVYLQMNSLKPEDTAVYYCAATYWWHRSSGWDRVEYWGQGTQVTVSS | high polyreactivity |
| QVQLVESGGGLVQAGGSLRLSCAASGGIFWHYTMGWYRQAPGKERELVAAITRRGGSTYYADSVKGRFTISRDNAKNSVYLQMTSLKREDTAVYYCAADFLPQSYNWYDYWGQGTQVTVSS | low polyreactivity |
| QVQLVESGGGLVQAGGSLRLSCAASGGIFWYYAMGWYRQAPGNERELVATISTGGSTKYADSVKGRFTISRDNAKNTVYLQMNSLNPDDTAVYYCNKVFPNLYIYVVRGLIEMDYWGQGTQVTVSS | low polyreactivity |
| QVQLVESGGGLVQAGGSLRLSCAASGGIFYGYAMGWYRQAPGKERELVASITSDGSTYADSVKGRFTISRDNAKNTVYLQMNSLKPEDTAVYYCNKEILVIVTYDYWGQGTQVTVSS | low polyreactivity |
| QVQLVESGGGLVQAGGSLRLSCAASGGIFYGYAMGWYRQAPWKERELVAAISSTGGRTYYADSVKGRFTISRDNAKNTVYLQMNSLKPEVTAVYYCAAEDFTRQFEYWGQGTQVTVSS | low polyreactivity |
| QVQLVESGGGLVQAGGSLRLSCAASGGIFYRNAMGWYRQAPGKERELVAAISSGGGSTYYADSVKGRFTISRDNAKNTVYLQMNSLKPEDTAVYYCARDSYHLYIQPFGYWGQGTQVTVSS | low polyreactivity |
| QVQLVESGGGLVQAGGSLRLSCAASGGIFYRYAMGWYRQAPGKEREFVASITSSGDRTYYADSVKGRFTISRDNAKNTVYLQMNSLKPEDTAVYYCAAVYTAAWGGRYHYWGQGTQVTVSS | high polyreactivity |
| QVQLVESGGGLVQAGGSLRLSCAASGGIIGWNAMGWYRQAPGKERELVATISWSGGSTYYADSVKGRFTISRDNAKNTVYLQMNSLKPEDTAVYYCAVARSAYWYRPAYDYWGQGTQVTVSS | high polyreactivity |
| QVQLVESGGGLVQAGGSLRLSCAASGGIILGYAMRWYRQARGKERELVAAISRSGVSTYYADSVKGRFTISRDNAKNTVYLQMNSLKPEDTAVYYCASDYRYASDYWGLGTQVTVSS | low polyreactivity |
| QVQLVESGGGLVQAGGSLRLSCAASGGILPKNAMGCYRQAPGKQRELVAAISTRGTSTYYADSVKGRFTISRDNAKNTVYLQMNSLKPEDTGVYYCATSRVYIGYDYWGQGTQETVSS | low polyreactivity |
| QVQLVESGGGLVQAGGSLRLSCAASGGILYHYAMGWYRQAPGIERELVAAIRWSGGSTYYADSVKGRFTISRDNAKNTVYLQMNSLKPEDTAVYYCAADVYYYHVLDFDYWGQGTQVTVSS | low polyreactivity |
| QVQLVESGGGLVQAGGSLRLSCAASGGILYYYAMGWYRQAPGKERELVAGISVRGGRTNYADSVKGRFTISRDNAKNTVYLQMNSLKPEDTAVYYCAAETLYTSGYGSWGQGTQVTVSS | low polyreactivity |
| QVQLVESGGGLVQAGGSLRLSCAASGGISAFNSMGWYRQAPGKERELVAAINYRGGTTYYADSVKGRFTISRDNAKNTVYLQMNSLKPEDTAVYYCNKPYYSSTYYYWGQGTQVTVSS | low polyreactivity |
| QVQLVESGGGLVQAGGSLRLSCAASGGIYDSYAMGWYRQAPGKEGEMVASISWSGGSTYYADSVKGRFTISRDNAKNTVYLQMNSLKPEDTAVYYCAADRAYAGRYWKGYHSALYDYWGEGTQVTVSS | low polyreactivity |
| QVQLVESGGGLVQAGGSLRLSCAASGGLFWTYAMGWYRQAPGKERELVATITSGGSTNYADSVKGRFTISRDNAKNTVYLQMNSLKPEETAVYYCNADWWWGYGYWGQGTQVTVSS | low polyreactivity |
| QVQLVESGGGLVQAGGSLRLSCAASGGMLPKNAMGWYRQAPGKVRELVAGISTRGTSTYYADSVKGRFTISRDNAKNTVYLQMNSLKPEDTAVYYCATSRDYIGYDYWGQGTQVTVSS | low polyreactivity |
| QVQLVESGGGLVQAGGSLRLSCAASGGNFEWNAMGWYRQAPGKERELVAAISNTGGSTSYADSVKGRFTISRDNAKNTVYLQMNSLKTEDTAVYYCNTVNRYEFGYWGQGSQVTVSS | high polyreactivity |

| Sequence | polyreactivity (PSR sort gate) |
| --- | --- |
| QVQLVESGGGLVQAGGSLRLSCAASGGSYVMGWYRQAPGKERELVAAITFSGRTYYADSVKGRFTISRDNAKNTVYLQMNSLKPEDTAGYYCAARERPGFRRPLTGGYDHWGQVTQVTVSS | high polyreactivity |
| QVQLVESGGGLVQAGGSLRLSCAASGGTFAAYAMGWYRQAPGKERELVAAIDSGGTTKYADSVKGRFTISRDNAKNTVYLQMNSLKPEDTAVYYCAKVTTGFGVETYHGKGNDYWGQGTQVTVSS | low polyreactivity |
| QVQLVESGGGLVQAGGSLRLSCAASGGTFATYAMGWYRQAPGKERELVATIRSGGSTYYADSVKGRFTISRDNAKNTVYLQMNSLKPEDTAVYYCNARAYHKGFYRITYYYWGQGTQVTVSS | high polyreactivity |
| QVQLVESGGGLVQAGGSLRLSCAASGGTFDVYTMGWYRQAPGKERELVAAIDNGGSTNYADSVKGRFTISRDNAKHTVYLQMNSLKPEDTAVYYCAADEVYLFWGIAEFIYDYWGQGTQVTVSS | low polyreactivity |
| QVQLVESGGGLVQAGGSLRLSCAASGGTFEVNAMGWYRQAPGKERELVAAIDTSDGSTYYADSVKGRFTISRDNAKNTVYLQMNSLKPEDTAVYYCAAERLFRFWYSAYERYDYWGQGTQVTVSS | low polyreactivity |
| QVQLVESGGGLVQAGGSLRLSCAASGGTFFVYMGRYRQAPGKERELVAAITGGGGTYYADSVKGRFTISRDNAKNTVYLQMNSLKPEDTAVYYCATRGATSTVPEGDSWGQGTHVTVSS | low polyreactivity |
| QVQLVESGGGLVQAGGSLRLSCAASGGTFGAYAMGWYRQAPGKERELVAAINVGGGSTYYADSVKGRFTISRDNAKNTVYLQMNSLKPEDTAVYYCAKDLYDGYWRGDYWGQGTQVTVSS | low polyreactivity |
| QVQLVESGGGLVQAGGSLRLSCAASGGTFGLDAMGWYRQARGKERELVARISWSSGSTYYADSVKGRFTISRDNAKNTVYLQMNSLKPEDTAVYYCATDTYGAHAFFEFDYWGQGTQVTVSS | low polyreactivity |
| QVQLVESGGGLVQAGGSLRLSCAASGGTFGNNDMGWYRQAPGKERELVAAIRSAGTTYYADSVKGRFTISRDNAKNTVYLQMNSLKPEDTAVYYWNADTTGYWSFGFQYYGEDYWGQGTQVTVSS | low polyreactivity |
| QVQLVESGGGLVQAGGSLRLSCAASGGTFGSNAMGWYRQAPGKERELLAAITSRGGSTSYADSVKGRFTISRDYAKNTVYLQMKSLKPEDTAVYYCASVRYYWRPYVVNFDYWGQGTQVTVSS | high polyreactivity |
| QVQLVESGGGLVQAGGSLRLSCAASGGTFGSNTMGWYRQAPGKERELVAAITSGVSTNYADSVKGRFTISRDNAKNTVYLQMISLKPEDTAVYYCAKDLWSEEYETIITSYGFDYWGQGTQVTLSS | low polyreactivity |
| QVQLVESGGGLVQAGGSLRLSCAASGGTFGSYAMGWSRPAPGKERELVAAIDYSGADTYYADSVKGRFTISRDNAKNTVYLQMNSLKPEDTAVYYCNAEFESGHDLDWYDYWGQGTQVTVSS | low polyreactivity |
| QVQLVESGGGLVQAGGSLRLSCAASGGTFGTYAMGWYRQAPGKERELVAAITRSGGSTYADSVKGRFTISRDNAKNTVYLQMNSMKPEDTAVYYCNTRTTWRRYVVNGYDYWGQGTQVTVSS | low polyreactivity |
| QVQLVESGGGLVQAGGSLRLSCAASGGTFGVNAMGWYRQAPGKDRELVAAISSSGGRTYYADSVKGRFTISRDNAKNTVYLQMNSLKPEDTAVYYCAARNYFWGQGTQVTVSS | low polyreactivity |
| QVQLVESGGGLVQAGGSLRLSCAASGGTFGYNTLGWYRQAPGKERELVAAITGSGGRTYYADSVKGRFTISRDNAKNTVYLQMNSLKPEDTAVYYCNALTYPDYGYWGQGTQVTVSS | low polyreactivity |
| QVQLVESGGGLVQAGGSLRLSCAASGGTFIVYAMGWYRQAPGKERELVAAITYSGGSTYYADSVKGRFTISRDNAKNTVYLQMNSLKPEVTAVYYCAARPFVSSWLQYAEGGDYWGQGTQVTVSS | low polyreactivity |
| QVQLVESGGGLVQAGGSLRLSCAASGGTFKPNVMGWYRQAPGKERELVAAITSGGSTYYADSVKGRFTMSRDNAKNTVYLQMNSLKPEDTAVYYCAATSLRRYGYNYWGQGTQVTVSS | high polyreactivity |
| QVQLVESGGGLVQAGGSLRLSCAASGGTFLAYAMGWSRQAPGKEREFVAGISNDGDTNYADSVKGRFTISRDNAKNTVYLQMNSLKPEDTAVYYCAALYRGYAVAASYYHWGQGTQVTVSS | high polyreactivity |
| QVQLVESGGGLVQAGGSLRLSCAASGGTFNHYAMGWYRQAPGKERELVASITNGASTYYADSVKGRFTISRDNAKNTVYLQMNSLKPEDTAVYYCAKRGRVGKYRYEYWGQGTQVTVSS | low polyreactivity |
| QVQLVESGGGLVQAGGSLRLSCAASGGTFPLYAMGWYRQAPGKERELVAAIRWSGGRTYYADSVKGRFTISRDNAKNTVYLQMNSLKPEDTAVYYCAADYDDGWGYDYWGQGTQVTVSS | high polyreactivity |
| QVQLVESGGGLVQAGGSLRLSCAASGGTFPQNLMGWYRQAPGQERELVAAISSGGSTYYADSGKGRFTISRDNAKNSVYLQMNSLKPEDTAVYYCAKRRWYRYDYWGQGTQVTVSS | high polyreactivity |
